Data taken from US10251952B2, “Humanized anti-tau(pS422) antibody brain shuttles and use thereof” (Hoffmann-La Roche Inc., priority 2014, dated 2019).
Positions count from the first letter of the chain named. Where “and” joins values, the source holds several entries; their conditions need not be identical. Identical values can stand only once.

B1: VH14 with VL17: anti-human tau(pS422) antibody; VH SEQ ID NO: 50, VL SEQ ID NO: 37 (antibody, V domains shown)
VH: QQLVESGGGLVQPGGSLRLSCAASGFSLSSNAINWVRQAPGKGLEWVGYIAVSGNTYYASWAKGRFTISRDNSKNTLYLQMNSLRAEDTAVYYCGKSNIWGPGTLVTVSS
VL: DIQMTQSPSSLSASVGDRVTITCRSSQSVRTNKLAWFQQKPGQPPKRLIYSASTLDFGVPSRFSGSGSGTEFTLTISSLQPEDFATYYCLGYFDCSIADCVAFGGGTKVEIK
modifications: humanized sequence
B2: VL17 with VH18: anti-human tau(pS422) antibody; VH SEQ ID NO: 52, VL SEQ ID NO: 37 (antibody, V domains shown)
VH: B1 VH with S60D, W61S, A62V, P102Q
VL: B1 VL
modifications: humanized sequence
B3: VH14 with VL21: anti-human tau(pS422) antibody; VH SEQ ID NO: 50, VL SEQ ID NO: 16 (antibody, V domains shown)
VH: B1 VH
VL: AQVMTQSPSSLSASVGDRVTITCRSSQSVRTNKLAWFQQKPGQPPKRLIYSASTLDFGVPSRFSGSGSGTEFTLTISSLQPEDFATYYCLGYFDSSADIVAFGGGTKVEIK
modifications: humanized sequence
B4: VH14 with VL15: anti-human tau(pS422) antibody; VH SEQ ID NO: 50, VL SEQ ID NO: 35 (antibody, V domains shown)
VH: B1 VH
VL: B1 VL with S25A, S28G, D56Q, F57S, C95S, C100S
modifications: humanized sequence
B5: VH14 with VL19: anti-human tau(pS422) antibody; VH SEQ ID NO: 50, VL SEQ ID NO: 38 (antibody, V domains shown)
VH: B1 VH
VL: B1 VL with D1A, I2Q, Q3V
modifications: humanized sequence
B6: VH14 with VL12: anti-human tau(pS422) antibody; VH SEQ ID NO: 50, VL SEQ ID NO: 34 (antibody, V domains shown)
VH: B1 VH
VL: B1 VL with S25A, S28G, D56Q, F57S
modifications: humanized sequence
B7: VH14 with VL40: anti-human tau(pS422) antibody; VH SEQ ID NO: 50, VL SEQ ID NO: 43 (antibody, V domains shown)
VH: B1 VH
VL: B3 VL with A1D, Q2I, V3Q, K33R, S95P, I99P
modifications: humanized sequence
B8: VH14 with VL35: anti-human tau(pS422) antibody; VH SEQ ID NO: 50, VL SEQ ID NO: 41 (antibody, V domains shown)
VH: B1 VH
VL: B1 VL with D1A, P8T, K33R, C95S, C100I
modifications: humanized sequence
B9: VH14 with VL09: anti-human tau(pS422) antibody; VH SEQ ID NO: 50, VL SEQ ID NO: 33 (antibody, V domains shown)
VH: B1 VH
VL: B1 VL with S10T, S25A, F37Y, Q43K, P44A, D56E, F57S, E82D
modifications: humanized sequence
B10: VH14 with VL00: anti-human tau(pS422) antibody; VH SEQ ID NO: 50, VL SEQ ID NO: 07 (antibody, listed as Oryctolagus cuniculus, V domains shown)
VH: B1 VH
VL: AQVLTQTTSPVSAAVGSTVTISCQSSQSVRTNKLAWFQQKPGQPPKRLIYSASTLDFGVPSRFSASGSGTQFTLTISDVQCDDAATYYCLGYFDCSIADCVAFGGGTEVVVK
modifications: humanized sequence
B11: VH14 with VL01: anti-human tau(pS422) antibody; VH SEQ ID NO: 50, VL SEQ ID NO: 32 (antibody, V domains shown)
VH: B1 VH
VL: B1 VL with P8T, S10T, R24Q, Q43K, P44A, E82D
modifications: humanized sequence
B12: VH14 with VL39: anti-human tau(pS422) antibody; VH SEQ ID NO: 50, VL SEQ ID NO: 42 (antibody, V domains shown)
VH: B1 VH
VL: B1 VL with K33R, C95P, C100P
modifications: humanized sequence
B13: VH14 with VL28: anti-human tau(pS422) antibody; VH SEQ ID NO: 50, VL SEQ ID NO: 39 (antibody, V domains shown)
VH: B1 VH
VL: B3 VL with Q2I, V3Q, S10T, K33R, Q43K, P44A, E82D, S95P, I99P
modifications: humanized sequence
B14: VL17 with VH22: anti-human tau(pS422) antibody; VH SEQ ID NO: 54, VL SEQ ID NO: 37 (antibody, V domains shown)
VH: EVQLLESGGGLVQPGGSLRLSCAASGFSLSSNAINWVRQAPGKGLEWVGYIAVSGNTYYADSVKGRFTISRDNSKNTLYLQMNSLRAEDTAVYYCGKSNIWGQGTLVTVSS
VL: B1 VL
modifications: humanized sequence
B15: VH14 with VL33: anti-human tau(pS422) antibody; VH SEQ ID NO: 50, VL SEQ ID NO: 40 (antibody, V domains shown)
VH: B1 VH
VL: B1 VL with D1A, K33R, C95S, C100I
modifications: humanized sequence
B16: VH14 with VL22: anti-human tau(pS422) antibody; VH SEQ ID NO: 50, VL SEQ ID NO: 17 (antibody, V domains shown)
VH: B1 VH
VL: B3 VL with K33R, F57Y
modifications: humanized sequence
B17: VL17 with VH23: anti-human tau(pS422) antibody; VH SEQ ID NO: 55, VL SEQ ID NO: 37 (antibody, V domains shown)
VH: B14 VH with L4V, A24V, R71K, L78V
VL: B1 VL
modifications: humanized sequence

Target: human tau(pS422) (Homo sapiens, UniProt P10636, S739X)
Test: BIAcore kinetic screening and kinetic rates of humanized VH/VL combinations
Format: binding
Details: 25 °C
Description: In the following Table characteristics of the different humanized variants of the rabbit light chain variable domain in combination with the humanized heavy chain variable domains VH14 and VH20, respectively, are shown. Binding partner was human tau(pS422).
Kinetic screening was performed according to Schraeml et al. (Schraeml, M. and M. Biehl, Methods Mol. Biol. 901 (2012) 171-181) on a BIAcore 4000 instrument, mounted with a BIAcore CM5 sensor. The BIAcore 4000 instrument was under the control of the software version V1.1. A BIAcore CM5 series S chip was mounted into the instrument and was hydrodynamically addressed and preconditioned according to the manufacturer's instructions. The instrument buffer was HBS-EP buffer (10 mM HEPES (pH 7.4), 150 mM NaCl, 1 mM EDTA, 0.05% (w/v) P20). An antibody capture system was prepared on the sensor surface. A polyclonal goat anti-human antibody with human IgG-Fc specificity (Jackson Lab.) was immobilized at 30 μg/ml in 10 mM sodium acetate buffer (pH 5) to spots 1, 2, 4 and 5 in the instrument's flow cells 1, 2, 3 and 4 at 10,000 RU using NHS/EDC chemistry. In each flow cell the antibodies were captured on spot 1 and spot 5. Spot 2 and spot 4 were used as reference spots. The sensor was deactivated with a 1 M ethanolamine solution. Humanized antibody derivatives were applied at concentrations between 44 nM and 70 nM in instrument buffer supplemented with 1 mg/ml CMD (carboxymethyldextrane). The antibodies were injected at a flow rate of 30 μl/min for 2 minutes. The capture level (CL) of the surface-presented antibodies was measured in rel. response units (RU). The analytes in solution, phosphorylated human tau protein, non-phosphorylated human tau protein and the phosphorylated human tau mutant protein T422S were injected at 300 nM for 3 minutes at a flow rate of 30 μl/minute. The dissociation was monitored for 5 minutes. The capture system was regenerated by a 1 minute injection of 10 mM glycine buffer, pH 1.7 at 30 μL/minute over all flow cells. Two report points, the recorded signal shortly before the end of the analyte injection, denoted as binding late (BL) and the recorded signal shortly before the end of the dissociation time, stability late (SL), were used to characterize the kinetic screening performance. Furthermore, the dissociation rate constant kd (1/s) was calculated according to a Langmuir model and the antibody/antigen complex half-life was calculated in minutes according to the formula ln(2)/(60*kd). The molar ratio (MR) was calculated according to the formula MR=(Binding Late (RU))/(Capture level (RU))*(MW(antibody)/(MW(antigen)). In case the sensor was configured with a suitable amount of antibody ligand capture level, each antibody should be able to functionally bind at least to one analyte in solution, which is represented by a molar ratio of MR=1.0. Then, the molar ratio is also an indicator for the valence mode of analyte binding. The maximum valence can be MR=2 for an antibody binding two analytes, one with each Fab valence.
In another embodiment, kinetic rates were determined at 25° C. and 37° C. using the same experimental setup, but using multiple concentration series of each analyte in solution at 0 nM (buffer), 1.2 nM, 3.7 nM, 11.1 nM, 33.3 nM, 100 nM and 300 nM. From the concentration-dependent binding behavior the kinetic data was calculated using the BIAcore evaluation software according to the manufacturer's instructions and a Langmuir 1.1 model with RMAX global.

Row | Molecule | kd (VH14 or VH20 with VL variants) | t/2 diss (VH14 or VH20 with VL variants) | kd (VL17 or VL19 with VH variants) | t/2 diss (VL17 or VL19 with VH variants) | kd [1/s] (VH14 or VH20 with VL variants)
1 | B1 | 0.00303 s⁻¹ and 0.00239 s⁻¹ | 4 min and 5 min | 0.003 s⁻¹ | 4 min | –
2 | B2 | – | – | 0.0023 s⁻¹ | 5 min | –
3 | B3 | 0.00293 s⁻¹ | 4 min | – | – | –
4 | B4 | 0.00363 s⁻¹ | 3 min | – | – | –
5 | B5 | 0.00198 s⁻¹ | 6 min | 0.002 s⁻¹ | 6 min | –
6 | B6 | 0.00248 s⁻¹ | 5 min | – | – | –
7 | B7 | 0.00301 s⁻¹ | 4 min | – | – | –
8 | B8 | 0.011 s⁻¹ | 1 min | – | – | –
9 | B9 | – | 5 min | – | – | 2.35E−03. 1/s
10 | B10 | 0.00104 s⁻¹ | 11 min | – | – | –
11 | B11 | 0.00382 s⁻¹ | 3 min | – | – | –
12 | B12 | 0.00522 s⁻¹ | 2 min | – | – | –
13 | B13 | 0.00384 s⁻¹ | 3 min | – | – | –
14 | B14 | – | – | 0.002 s⁻¹ | 6 min | –
15 | B15 | 0.0102 s⁻¹ | 1 min | – | – | –
16 | B16 | 0.0033 s⁻¹ | 4 min | – | – | –
17 | B17 | – | – | 0.0007 s⁻¹ | 17 min | –
